{"source": "paper PMC8752837", "about": "“Structural basis of BAK activation in mitochondrial apoptosis initiation” (Nature Communications, 2022)", "binders": {"B1": {"name": "W(0') BID BH3 peptide (peptide)", "chain": "Ac-EDWIRNIARHLAQVGDSMDRSI-NH2"}}, "molecular_target": "T1, GST-BAK (human)", "T1 chain": "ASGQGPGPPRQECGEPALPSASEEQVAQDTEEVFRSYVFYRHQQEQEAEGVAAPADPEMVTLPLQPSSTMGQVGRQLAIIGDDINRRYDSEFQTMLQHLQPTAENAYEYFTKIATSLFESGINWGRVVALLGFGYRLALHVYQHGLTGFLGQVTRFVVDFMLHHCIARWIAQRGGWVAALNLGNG", "test": "fluorescence polarisation; competitive: displacement of 10 nM BID BH3 SAHB-F from 1 µM GST-BAK by peptides at 500-0.2 µM; 50 mM Tris-HCl pH 7.5, 50 mM KCl, 0.1 mg/mL BSA, 2 mM DTT, 0.005% Tween-20; 60 min at RT", "details": "both partners purified"}
{"binder": "B1", "values": [{"measurement": "IC50", "value": "27.4 ± 16.4", "unit": "µM"}]}
